Results taken from publication PMC1931592.

Target: Recombinant human caspase-9 (active) (human) (UniProt P55211)
Experiment: enzyme inhibition assay (fluorogenic substrate cleavage); one unit of active recombinant human caspase incubated with various concentrations of peptide inhibitor in 100 mM NaCl, 50 mM HEPES, 10 mM DTT, 1 mM EDTA, 10% glycerol, 0.1% CHAPS, pH 7.4, 37°C, 30 min; then 200 μM substrate (Ac-DEVD-MCA for caspases-3 and -7, Ac-IETD-MCA for caspase-8, Ac-LEHD-MCA for caspase-9); apparent Ki = IC50/(1+[S]/Km)

Recombinant human caspase-9 (active) (human), sequence (P55211 whole entry): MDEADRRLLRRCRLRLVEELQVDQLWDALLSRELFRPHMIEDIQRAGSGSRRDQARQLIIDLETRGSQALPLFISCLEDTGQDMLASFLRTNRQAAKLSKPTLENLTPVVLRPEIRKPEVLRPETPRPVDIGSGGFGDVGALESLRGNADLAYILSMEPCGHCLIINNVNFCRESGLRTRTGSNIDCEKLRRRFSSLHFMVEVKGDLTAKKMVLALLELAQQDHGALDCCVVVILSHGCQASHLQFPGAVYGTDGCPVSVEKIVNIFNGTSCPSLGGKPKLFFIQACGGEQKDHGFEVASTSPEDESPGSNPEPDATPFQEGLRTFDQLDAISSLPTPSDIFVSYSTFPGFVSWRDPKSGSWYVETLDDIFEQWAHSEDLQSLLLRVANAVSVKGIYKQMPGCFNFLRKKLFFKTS

Row | Ki [µM] | Binder
1 | > 0.2 | Ac-DMQD-aldehyde (SMILES CSCC[C@H](NC(=O)[C@H](CC(=O)O)NC(C)=O)C(=O)N[C@@H](CCC(N)=O)C(=O)N[C@H](C=O)CC(=O)O) [Ac-DMQD-CHO]
2 | 0.0145 | Ac-DQTD-aldehyde (SMILES CC(=O)N[C@@H](CC(=O)O)C(=O)N[C@@H](CCC(N)=O)C(=O)N[C@H](C(=O)N[C@H](C=O)CC(=O)O)[C@@H](C)O) [Ac-DQTD-CHO]
